Measured values: paper PMC4631483, “The oxygenating constituent of 3,6-diketocamphane monooxygenase from the CAM plasmid of Pseudomonas putida: the first crystal structure of a type II Baeyer–Villiger monooxygenase” (Acta Crystallographica Section D: Biological Crystallography, 2015)

B1: native 3,6-diketocamphane 1,6-monooxygenase, oxygenating component (enzyme, Pseudomonas putida NCIMB 10007, UniProt D7UER1 1-378, looked up)
chain: MAMETGLIFHPYMRPGRSARQTFDWGIKSAVQADSVGIDSMMISEHASQIWENIPNPELLIAAAALQTKNIKFAPMAHLLPHQHPAKLATMIGWLSQILEGRYFLGIGAGAYPQASYMHGIRNAGQSNTATGGEETKNLNDMVRESLFIMEKIWKREPFFHEGKYWDAGYPEELEGEEGDEQHKLADFSPWGGKAPEIAVTGFSYNSPSMRLAGERNFKPVSIFSGLDALKRHWEVYSEAAIEAGHTPDRSRHAVSHTVFCADTDKEAKRLVMEGPIGYCFERYLIPIWRRFGMMDGYAKDAGIDPVDADLEFLVDNVFLVGSPDTVTEKINALFEATGGWGTLQVEAHDYYDDPAPWFQSLELISKEVAPKILLPKR
notes: 3,6-diketocamphane 1,6-monooxygenase (3,6-DKMO; EC 1.14.13.-), oxygenating component, encoded on the CAM plasmid of Pseudomonas putida NCIMB 10007; monomer 42.3 kDa; residues up to 378 are numbered in the model (A1, A128-133, A176-180, A377-378, B1, B127-135, B176-179 not modelled); also called 3,6-DKMO; native 3,6-DKMO
B2: recombinant (overexpressed) 3,6-diketocamphane 1,6-monooxygenase, oxygenating component, N-terminally hexahistidine-tagged (enzyme, Pseudomonas putida)
chain: B1 chain
notes: 3,6-diketocamphane 1,6-monooxygenase (3,6-DKMO), oxygenating component, the 3,6-DKMO gene of the CAM plasmid of Pseudomonas putida in pET-28b; residues A126-135, A176-179, A377-378, B125-135, B176-179 not modelled in the FMN complex; Crystallised with 20 mM FMN, 5 mM NADH and 5 mM (-)-camphor; only FMN (occupancy 0.6) seen; also called overexpressed 3,6-DKMO; recombinant 3,6-DKMO; source: E. coli …

How the values were obtained:
[1] = target: the molecule itself; experiment: crystal structure; native apo enzyme; crystals from 50 mM PIPES pH 6.5, 50% ammonium sulfate, room temperature; P212121, two subunits in the asymmetric unit; 1.9 A
[2] = target: the molecule itself; experiment: crystal structure; overexpressed enzyme co-crystallised with 20 mM FMN, 5 mM NADH, 5 mM (-)-camphor; 100 mM HEPES pH 7.0, 20% PEG 3350, 18 C; P212121, one dimer in the asymmetric unit; 1.9 A

| Protein | stoichiometry N [1] | stoichiometry N [2] |
| --- | --- | --- |
| B1 | 2 | – |
| B2 | – | 2 |
